Biological target: peptide containing the sequence LAETG

B1: SrtE1^ΔN, extracellular domain of sortase E1 from Streptomyces coelicolor (residues T162-S352), Q9XA14 162-352 (enzyme)
chain: TNVRAHAQANQAASNLQDDWANGKRSPGSFEPGQGFALLHIPKLDVVVPIAEGISSKKVLDRGMVGHYAEDGLKTAMPDAKAGNFGLAGHRNTHGEPFRYINKLEPGDPIVVETQDKYFVYKMASILPVTSPSNVSVLDPVPKQSGFKGPGRYITLTTCTPEFTSKYRMIVWGKMVEERPRSKGKPDALVS
- hydrolysis of the peptide at the T-G bond, in vitro HPLC assay (area of the N-terminal product peak); preference against the LPETG peptide: 2 fold

Source: publication PMC5148588
